Test results as given in paper PMC11723632 (PLOS Pathogens, 2024).

Biological target: EBOV sGP (secreted form of GP) (Zaire ebolavirus, Mayinga-76 …, UniProt P60170)
Assay: ELISA
Details: both partners purified

Chain of EBOV sGP (secreted form of GP) (P60170 33-305): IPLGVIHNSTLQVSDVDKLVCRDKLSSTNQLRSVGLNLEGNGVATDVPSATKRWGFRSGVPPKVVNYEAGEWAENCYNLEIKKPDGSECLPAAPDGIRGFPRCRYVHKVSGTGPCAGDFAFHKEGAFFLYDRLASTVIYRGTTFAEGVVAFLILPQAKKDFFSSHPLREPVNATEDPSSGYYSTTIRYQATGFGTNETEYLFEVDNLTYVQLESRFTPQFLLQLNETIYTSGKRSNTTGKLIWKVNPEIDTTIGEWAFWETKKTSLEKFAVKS

B1: Nanosota-EB2-His (VHH)
VHH: QVQLQESGGGVVQAGGSLRLSCSASGRTFSNYAMAWFRQAPGKDREFAAGINYNGERTAYADSVKGRFTISRDDAKNTVYLQMNSLKPEDTAVYSCAARPWSIANLAYTYDSWGQGTQVTVSS
**Q.** Does B1 bind?
**A.** no binding

B2: Nanosota-EB1-His (VHH)
VHH: QVQLQESGGGQVQAGGSLRLSCAASGSTSVIYAMGWYRQAPGKQRELVAAITRGVGSTNYADSVKGRFTISRDNAKNTMYLQMNSLKPEDTAVYYCNARLLVAPPPYEYDYWGQGTQVTVSS
**Q.** Does B2 bind?
**A.** binds
